The Kd is a measure of binding affinity in units of concentration.

In assay [1] the target is T1, recombinant mouse PlGF-2 (mouse, UniProt P49764 24-158, limits assumed).
T1 sequence (looked up): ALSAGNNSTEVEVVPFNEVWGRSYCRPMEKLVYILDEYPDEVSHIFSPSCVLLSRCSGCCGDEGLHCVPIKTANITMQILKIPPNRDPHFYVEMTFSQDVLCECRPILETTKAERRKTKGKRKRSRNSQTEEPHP
Nature of the assay: competition ELISA on mPlGF-coated plate; blocked ligand: biotinylated NRP-2. As for the experimental part:
The ability of the anti-PlGF Mabs C9.V2 and 7A10 to block the interaction between PlGF and its co-receptors NRP-1 and NRP-2 (Gluzman-Poltorak et al., 2000; Mamluk et al., 2002) was also tested. For PlGF/NRP1 and PlGF/NRP2 competition binding assays, Microtiter plates (Nunc, Rochester, N.Y., USA) were coated with recombinant mouse PlGF (BioVision, Mountain View, Calif., USA) either at 2 μg/mL (for PlGF/NRP1 binding) or at 4 ug/mL (for PlGF/NRP2 binding) in PBS. After an overnight incubation at 4° C., assay plates were washed with wash buffer (PBS/0.05% Tween 20) and treated with block buffer (PBS/0.5% BSA) for 1 to 2 hours. Samples were serially diluted in sample diluent (PBS/0.5% BSA/15 ppm Proclin/0.05% Tween 20/0.2% BGG/0.25% CHAPS/5 mM EDTA/0.3 M NaCl, pH7.4) containing 0.25 ug/mL of heparin (Sigma, St. Louis, Mo., US) and incubated in the presence of either 100 ng/mL of biotin-mouse
NRP1-Fc (0.66 nM for PlGF/NRP1 binding) or 425 ng/mL of biotin-NRP2-Fc (6 nM for PlGF/NRP2-binding). After incubation for 2 hours, assay plates were washed 6 times with wash buffer and then incubated for 45 to 60 minutes with AMDEX streptavidin-HRP (GE Healthcare, Pittsburgh, Pa., USA) diluted 10,000 folds in assay buffer (PBS/0.5% BSA/0.05% Tween 20, pH7.4). […] Absorbance was measured at 450 nm against a reference wavelength of 620 nm.

For assay [2], the target named is T1, recombinant mouse PlGF-2. Nature of the assay: cell-based or functional assay.
Another assay addresses T2, human PlGF-2 (human, UniProt P49763-3 19-170).
T2 construct: Panning used human PlGF residues 19-116 and human PlGF-1; also called hPlGF-2; hPlGF
T2 sequence (looked up): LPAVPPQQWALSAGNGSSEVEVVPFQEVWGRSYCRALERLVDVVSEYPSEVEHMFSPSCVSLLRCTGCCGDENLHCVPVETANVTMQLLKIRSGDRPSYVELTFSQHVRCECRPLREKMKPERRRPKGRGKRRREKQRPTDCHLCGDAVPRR
The experiment in a line: Biacore, anti-mouse Fc chip. On the technique in general: Surface plasmon resonance follows binding to a sensor surface in real time, without labels.

Assay [3] concerns the target T1, recombinant mouse PlGF-2. The experiment in a line: Biacore, anti-mouse Fc chip.

As to “mFLT1(1-3)-IgG (from UniProt P35969) (Fc fusion)”, the IC50 (read off the curve) with recombinant mouse PlGF-2 [1] turned out to be 4000 pM.

B1: anti-PlGF monoclonal antibody C9.V2 (antibody, mouse IgG2a, V domains shown)
VH: EVQLVESGGGLVQPGGSLRLSCAASGFTFTNTWISWVRQAPGKGLEWVGSITPANGYTNYADSVKGRFTISADTSKNTAYLQMNSLRAEDTAVYYCARAVYPWFFAYWGQGTLVTVSS
VL: DIQMTQSPSSLSASVGDRVTITCRASQYVSHAVAWYQQKPGKAPKLLIYSASFLYSGVPSRFSGSGSGTDFTLTISSLQPEDFATYYCQSAYTPPTTFGQGTKVEIK
notes: also called C9v2.9; anti-PlGF MAb C9v2
Take B1: the “calculated IC50 (PlGF-induced migration of 67NR-VEGFR-1 cells, FIG. 2)” value in the assay with recombinant mouse PlGF-2 [2] was 800 pM. Also, the Kd came out at 800 pM with human PlGF-2 and 900 pM with recombinant mouse PlGF-2 [3]. In addition, the “IC50 (read off the curve)” value in the assay with recombinant mouse PlGF-2 [1] is roughly 4000 pM.

The values are drawn from patent US20110171231A1 (published 2011).
